Measured values published in paper PMC4507180.
Residue numbers refer to the chain shown, from its start.

Key:
[1] = target: T1, DndB (Salmonella enterica serovar Cerro 87) (UniProt E2D676); assay: EMSA; details: EMSA: 20 mM Tris-HCl pH 8.0, 50 mM KCl, 10 mM MgCl2, 5 mM EDTA, 10 mM DTT, 5% glycerol, room temperature 30 min, 20 nM DNA; footprinting: 25 C 30 min, 200 ng …
T1 sequence: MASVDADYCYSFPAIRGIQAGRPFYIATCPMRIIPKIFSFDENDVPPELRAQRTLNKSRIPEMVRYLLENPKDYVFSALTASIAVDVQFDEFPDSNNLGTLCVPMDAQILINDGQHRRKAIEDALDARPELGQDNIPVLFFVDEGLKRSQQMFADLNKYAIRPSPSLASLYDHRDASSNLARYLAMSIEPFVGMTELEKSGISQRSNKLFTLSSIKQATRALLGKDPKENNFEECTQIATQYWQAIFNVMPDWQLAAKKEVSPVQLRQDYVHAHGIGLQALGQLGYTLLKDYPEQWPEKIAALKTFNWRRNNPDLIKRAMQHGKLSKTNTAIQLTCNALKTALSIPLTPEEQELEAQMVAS

[2] = target: T2, DndB C29S C29S (Salmonella enterica serovar Cerro 87) (UniProt E2D676); assay: EMSA; details: EMSA: 20 mM Tris-HCl pH 8.0, 50 mM KCl, 10 mM MgCl2, 5 mM EDTA, 10 mM DTT, 5% glycerol, room temperature 30 min, 20 nM DNA; footprinting: 25 C 30 min, 200 ng …
T2 sequence: T1 sequence with C29S

[3] = target: DndB protein of Salmonella enterica serovar Cerro 87 (Salmonella enterica serovar Cerro 87); assay: SEC; HiLoad 16/60 Superdex 200; 20 mM Tris-HCl pH 8.0, 150 mM NaCl; 0.7 mL/min; calibrated with myoglobin, ovalbumin, albumin, phosphorylase b, gamma-globulin; native mass 79 kDa

| stoichiometry N [3] | Substance | binding [1] | binding [2] |
| --- | --- | --- | --- |
|  | GCTGTAATCCGTGTAAAAATCGAATGAATTGAGTTACGTGATATTTTACGTAATGCTTAATAAAATTTATAGTTTTTTTTATGTTTTACGTGATTTTTTGCGTACAGGGTTCCATATCTGAGA (double strand) [B1] | 300 nM | 90 nM |
| 2 | DndB protein of Salmonella enterica serovar Cerro 87 (natural protein) |  |  |
